Here are results for 25 molecules from patent publication US20150344570A1 (published 2015).

First the molecules themselves.
T1: FcγRIIb extracellular domain with C-terminal His tag (human, UniProt P31994 43-217)
T1 construct: extracellular domain; also called FcgRIIb; 2b
T1 sequence (looked up): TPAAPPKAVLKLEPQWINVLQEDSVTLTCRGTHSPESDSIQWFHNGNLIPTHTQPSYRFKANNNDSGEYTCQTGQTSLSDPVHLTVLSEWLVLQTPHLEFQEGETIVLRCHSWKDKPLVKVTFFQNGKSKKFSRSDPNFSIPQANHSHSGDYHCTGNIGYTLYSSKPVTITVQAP

B1: GpH7-B3 variant G237_02A/GpL16-k0 (antibody, human IgG1, kappa)
heavy: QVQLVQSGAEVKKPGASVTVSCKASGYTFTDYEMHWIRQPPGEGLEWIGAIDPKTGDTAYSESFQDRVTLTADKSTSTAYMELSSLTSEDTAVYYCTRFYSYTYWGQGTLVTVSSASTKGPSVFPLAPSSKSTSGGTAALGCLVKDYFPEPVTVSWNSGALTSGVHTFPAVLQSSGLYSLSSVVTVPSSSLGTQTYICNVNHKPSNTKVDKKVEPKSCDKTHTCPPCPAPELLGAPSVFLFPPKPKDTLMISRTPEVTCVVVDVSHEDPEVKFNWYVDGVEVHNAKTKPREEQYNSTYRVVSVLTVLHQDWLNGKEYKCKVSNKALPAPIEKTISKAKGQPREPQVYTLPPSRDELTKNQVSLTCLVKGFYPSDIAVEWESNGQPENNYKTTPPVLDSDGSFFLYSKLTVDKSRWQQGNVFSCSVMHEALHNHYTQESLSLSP
light: DIVMTQSPLSLPVTPGEPASISCQASESLVHSNRNTYLHWYLQKPGQSPQLLIYKVSNRFSGVPDRFSGSGSGTDFTLKISRVEAEDVGVYYCSQNTHVPPTFGQGTKVEIERTVAAPSVFIFPPSDEQLKSGTASVVCLLNNFYPREAKVQWKVDNALQSGNSQESVTEQDSKDSTYSLSSTLTLSKADYEKHKVYACEVTHQGLSSPVTKSFNRGEC
notes: also called Ho Ab G237_02A
B2: GpH7-B3 variant K326_08L/GpL16-k0 (antibody, human IgG1, kappa)
heavy: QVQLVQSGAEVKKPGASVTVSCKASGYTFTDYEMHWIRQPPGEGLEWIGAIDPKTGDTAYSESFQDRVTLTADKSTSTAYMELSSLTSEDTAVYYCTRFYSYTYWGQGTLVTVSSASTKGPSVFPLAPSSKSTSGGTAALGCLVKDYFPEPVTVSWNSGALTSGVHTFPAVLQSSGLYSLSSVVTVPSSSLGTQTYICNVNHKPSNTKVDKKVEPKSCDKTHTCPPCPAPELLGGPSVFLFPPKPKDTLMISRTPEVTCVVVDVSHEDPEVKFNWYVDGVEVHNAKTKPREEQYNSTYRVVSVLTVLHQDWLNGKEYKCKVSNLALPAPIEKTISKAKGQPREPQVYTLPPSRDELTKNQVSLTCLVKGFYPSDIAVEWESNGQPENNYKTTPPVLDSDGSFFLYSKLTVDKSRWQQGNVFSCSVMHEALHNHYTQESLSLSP
light: B1 light
notes: also called Ho Ab K326_08L
B3: GpH7-B3 variant L234_09D/GpL16-k0 (antibody, human IgG1, kappa)
heavy: not shown
light: B1 light
notes: also called Ho Ab L234_09D
B4: GpH7-B3 variant I336_06M/GpL16-k0 (antibody, human IgG1, kappa)
heavy: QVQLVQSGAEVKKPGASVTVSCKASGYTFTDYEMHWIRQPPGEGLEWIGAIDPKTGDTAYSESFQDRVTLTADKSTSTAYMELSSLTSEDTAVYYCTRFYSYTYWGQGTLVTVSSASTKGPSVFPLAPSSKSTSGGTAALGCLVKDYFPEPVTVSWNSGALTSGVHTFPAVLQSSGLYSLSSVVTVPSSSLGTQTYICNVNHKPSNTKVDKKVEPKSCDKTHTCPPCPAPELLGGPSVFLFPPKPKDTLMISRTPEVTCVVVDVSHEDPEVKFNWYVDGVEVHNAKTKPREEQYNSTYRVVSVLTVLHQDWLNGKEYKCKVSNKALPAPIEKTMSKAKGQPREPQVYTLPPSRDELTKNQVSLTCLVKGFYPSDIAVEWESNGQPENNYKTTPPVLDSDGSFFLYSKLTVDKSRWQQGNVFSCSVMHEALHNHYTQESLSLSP
light: B1 light
notes: also called Ho Ab I336_06M
B5: GpH7-B3 variant L234_10E/GpL16-k0 (antibody, human IgG1, kappa)
heavy: not shown
light: B1 light
notes: also called Ho Ab L234_10E
B6: GpH7-B3 variant G237_08L/GpL16-k0 (antibody, human IgG1, kappa)
heavy: not shown
light: B1 light
notes: also called Ho Ab G237_08L
B7: GpH7-B3 variant G237_04F/GpL16-k0 (antibody, human IgG1, kappa)
heavy: not shown
light: B1 light
notes: also called Ho Ab G237_04F
B8: GpH7-B3 variant G237_09D/GpL16-k0 (antibody, human IgG1, kappa)
heavy: not shown
light: B1 light
notes: also called Ho Ab G237_09D
B9: GpH7-B3 variant H268_15Y/GpL16-k0 (antibody, human IgG1, kappa)
heavy: not shown
light: B1 light
notes: also called Ho Ab H268_15Y
B10: GpH7-B3 variant L234_20W/GpL16-k0 (antibody, human IgG1, kappa)
heavy: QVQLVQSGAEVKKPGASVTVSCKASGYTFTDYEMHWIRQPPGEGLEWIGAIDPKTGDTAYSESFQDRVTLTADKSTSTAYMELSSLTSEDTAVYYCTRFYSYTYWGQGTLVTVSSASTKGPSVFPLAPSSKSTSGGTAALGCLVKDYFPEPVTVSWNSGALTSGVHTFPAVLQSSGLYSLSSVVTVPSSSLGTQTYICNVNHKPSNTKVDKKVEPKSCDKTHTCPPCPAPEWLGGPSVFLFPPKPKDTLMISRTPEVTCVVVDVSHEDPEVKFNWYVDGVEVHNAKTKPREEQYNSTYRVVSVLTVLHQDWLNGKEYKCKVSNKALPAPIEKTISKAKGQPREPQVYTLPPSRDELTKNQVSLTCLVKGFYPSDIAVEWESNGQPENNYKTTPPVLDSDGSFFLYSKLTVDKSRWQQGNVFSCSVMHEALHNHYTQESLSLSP
light: B1 light
notes: also called Ho Ab L234_20W
B11: GpH7-B3 variant G237_18N/GpL16-k0 (antibody, human IgG1, kappa)
heavy: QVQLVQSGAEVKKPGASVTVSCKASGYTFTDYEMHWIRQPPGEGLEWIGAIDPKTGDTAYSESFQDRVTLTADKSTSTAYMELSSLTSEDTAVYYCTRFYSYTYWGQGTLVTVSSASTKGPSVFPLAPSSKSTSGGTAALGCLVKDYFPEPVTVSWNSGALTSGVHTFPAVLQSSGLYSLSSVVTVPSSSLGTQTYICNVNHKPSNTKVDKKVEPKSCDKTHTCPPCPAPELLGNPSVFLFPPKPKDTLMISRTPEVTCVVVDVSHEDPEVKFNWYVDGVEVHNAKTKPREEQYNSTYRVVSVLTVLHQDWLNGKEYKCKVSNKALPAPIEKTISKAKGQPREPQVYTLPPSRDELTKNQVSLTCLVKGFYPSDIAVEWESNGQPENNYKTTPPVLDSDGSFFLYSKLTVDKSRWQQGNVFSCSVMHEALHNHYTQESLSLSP
light: B1 light
notes: also called Ho Ab G237_18N
B12: GpH7-B3 variant H268_05P/GpL16-k0 (antibody, human IgG1, kappa)
heavy: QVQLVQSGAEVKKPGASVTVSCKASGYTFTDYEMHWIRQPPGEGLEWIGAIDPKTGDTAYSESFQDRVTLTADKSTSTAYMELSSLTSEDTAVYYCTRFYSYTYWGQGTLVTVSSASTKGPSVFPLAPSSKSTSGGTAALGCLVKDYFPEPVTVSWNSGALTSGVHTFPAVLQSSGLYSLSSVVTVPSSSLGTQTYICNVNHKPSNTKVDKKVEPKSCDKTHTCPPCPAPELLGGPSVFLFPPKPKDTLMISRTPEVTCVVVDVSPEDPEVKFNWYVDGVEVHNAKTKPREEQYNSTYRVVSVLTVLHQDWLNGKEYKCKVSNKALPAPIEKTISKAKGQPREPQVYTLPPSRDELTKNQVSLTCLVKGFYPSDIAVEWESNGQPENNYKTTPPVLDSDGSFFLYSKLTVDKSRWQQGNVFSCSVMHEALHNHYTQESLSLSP
light: B1 light
notes: also called Ho Ab H268_05P
B13: GpH7-B3 variant I332_14T/GpL16-k0 (antibody, human IgG1, kappa)
heavy: not shown
light: B1 light
notes: also called Ho Ab I332_14T
B14: GpH7-B3 variant G237_19Q/GpL16-k0 (antibody, human IgG1, kappa)
heavy: not shown
light: B1 light
notes: also called Ho Ab G237_19Q
B15: GpH7-B3 variant G237_10E/GpL16-k0 (antibody, human IgG1, kappa)
heavy: not shown
light: B1 light
notes: also called Ho Ab G237_10E
B16: GpH7-B3 variant K326_07I/GpL16-k0 (antibody, human IgG1, kappa)
heavy: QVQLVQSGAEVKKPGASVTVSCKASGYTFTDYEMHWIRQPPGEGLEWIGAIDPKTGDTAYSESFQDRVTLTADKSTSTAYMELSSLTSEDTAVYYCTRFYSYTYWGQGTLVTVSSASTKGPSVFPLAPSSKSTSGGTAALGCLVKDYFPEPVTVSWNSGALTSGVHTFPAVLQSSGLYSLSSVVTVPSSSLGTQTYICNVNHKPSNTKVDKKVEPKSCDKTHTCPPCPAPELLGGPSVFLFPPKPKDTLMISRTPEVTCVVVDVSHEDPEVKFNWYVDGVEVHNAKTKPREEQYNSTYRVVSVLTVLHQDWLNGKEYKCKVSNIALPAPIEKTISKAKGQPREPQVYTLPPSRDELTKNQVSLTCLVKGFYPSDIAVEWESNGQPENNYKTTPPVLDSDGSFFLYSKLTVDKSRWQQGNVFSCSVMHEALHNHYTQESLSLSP
light: B1 light
notes: also called Ho Ab K326_07I
B17: GpH7-B3 variant I332_02A/GpL16-k0 (antibody, human IgG1, kappa)
heavy: not shown
light: B1 light
notes: also called Ho Ab I332_02A
B18: GpH7-B3 variant A330_01G/GpL16-k0 (antibody, human IgG1, kappa)
heavy: not shown
light: B1 light
notes: also called Ho Ab A330_01G
B19: GpH7-B3 variant A327_07I/GpL16-k0 (antibody, human IgG1, kappa)
heavy: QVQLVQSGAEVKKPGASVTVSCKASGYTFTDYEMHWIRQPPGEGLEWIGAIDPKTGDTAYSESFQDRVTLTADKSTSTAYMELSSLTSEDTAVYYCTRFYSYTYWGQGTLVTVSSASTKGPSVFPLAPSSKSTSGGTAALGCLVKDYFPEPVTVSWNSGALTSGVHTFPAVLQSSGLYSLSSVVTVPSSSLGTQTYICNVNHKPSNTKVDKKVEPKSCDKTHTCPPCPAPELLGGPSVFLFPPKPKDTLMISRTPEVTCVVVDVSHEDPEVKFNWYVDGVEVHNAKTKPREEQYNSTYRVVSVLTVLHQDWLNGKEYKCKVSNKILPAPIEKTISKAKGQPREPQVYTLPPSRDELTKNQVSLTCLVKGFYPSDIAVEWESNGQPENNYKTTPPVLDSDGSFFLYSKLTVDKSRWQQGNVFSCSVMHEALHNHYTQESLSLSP
light: B1 light
notes: also called Ho Ab A327_07I
B20: GpH7-B3 variant H268_03V/GpL16-k0 (antibody, human IgG1, kappa)
heavy: not shown
light: B1 light
notes: also called Ho Ab H268_03V
B21: GpH7-B3 variant I336_08L/GpL16-k0 (antibody, human IgG1, kappa)
heavy: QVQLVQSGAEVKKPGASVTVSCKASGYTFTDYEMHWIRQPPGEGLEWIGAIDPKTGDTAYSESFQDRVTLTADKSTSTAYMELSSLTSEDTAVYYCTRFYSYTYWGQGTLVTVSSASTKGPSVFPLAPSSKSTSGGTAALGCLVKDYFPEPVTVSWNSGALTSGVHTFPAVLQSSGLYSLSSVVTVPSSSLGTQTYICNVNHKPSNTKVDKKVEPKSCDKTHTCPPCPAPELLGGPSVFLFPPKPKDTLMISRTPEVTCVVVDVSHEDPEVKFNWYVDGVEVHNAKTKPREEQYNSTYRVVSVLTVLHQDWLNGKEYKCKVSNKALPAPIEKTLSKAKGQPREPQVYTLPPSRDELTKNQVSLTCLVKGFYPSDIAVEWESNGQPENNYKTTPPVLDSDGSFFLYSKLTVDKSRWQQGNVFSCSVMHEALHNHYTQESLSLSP
light: B1 light
notes: also called Ho Ab I336_08L
B22: GpH7-B3 variant A327_18N/GpL16-k0 (antibody, human IgG1, kappa)
heavy: not shown
light: B1 light
notes: also called Ho Ab A327_18N
B23: GpH7-B3 variant G237_13S/GpL16-k0 (antibody, human IgG1, kappa)
heavy: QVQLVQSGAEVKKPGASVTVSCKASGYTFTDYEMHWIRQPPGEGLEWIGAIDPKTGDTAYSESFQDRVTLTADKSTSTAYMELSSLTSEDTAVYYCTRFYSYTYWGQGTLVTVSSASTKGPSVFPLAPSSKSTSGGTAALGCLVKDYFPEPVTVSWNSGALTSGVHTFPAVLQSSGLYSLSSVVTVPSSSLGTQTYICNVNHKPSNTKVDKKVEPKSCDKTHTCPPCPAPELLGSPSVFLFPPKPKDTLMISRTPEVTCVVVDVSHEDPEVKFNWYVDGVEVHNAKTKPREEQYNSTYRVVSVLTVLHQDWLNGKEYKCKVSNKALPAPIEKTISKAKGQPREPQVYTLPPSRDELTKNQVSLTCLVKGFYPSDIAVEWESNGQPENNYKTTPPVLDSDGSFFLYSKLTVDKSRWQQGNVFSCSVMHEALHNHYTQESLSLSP
light: B1 light
notes: also called Ho Ab G237_13S
B24: GpH7-B3 variant A330_05P/GpL16-k0 (antibody, human IgG1, kappa)
heavy: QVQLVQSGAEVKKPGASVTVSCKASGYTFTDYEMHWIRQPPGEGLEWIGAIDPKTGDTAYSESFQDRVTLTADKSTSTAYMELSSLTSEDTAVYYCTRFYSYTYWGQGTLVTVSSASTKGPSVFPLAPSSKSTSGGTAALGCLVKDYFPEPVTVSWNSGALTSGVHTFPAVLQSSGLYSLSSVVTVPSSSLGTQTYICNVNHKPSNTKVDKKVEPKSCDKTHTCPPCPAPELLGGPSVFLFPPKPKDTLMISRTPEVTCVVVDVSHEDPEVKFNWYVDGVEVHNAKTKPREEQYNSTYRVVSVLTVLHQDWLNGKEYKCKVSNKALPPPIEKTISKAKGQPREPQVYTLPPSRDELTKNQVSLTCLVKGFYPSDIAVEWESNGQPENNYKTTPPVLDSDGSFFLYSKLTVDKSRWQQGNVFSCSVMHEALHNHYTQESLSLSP
light: B1 light
notes: also called Ho Ab A330_05P
B25: GpH7-B3 variant G237_20W/GpL16-k0 (antibody, human IgG1, kappa)
heavy: not shown
light: B1 light
notes: also called Ho Ab G237_20W

The assay addresses T1, FcγRIIb extracellular domain with …. In words: SPR (Biacore), relative binding. The method, then: Analysis of interaction between objective antibody and the FcγR was carried out using Biacore T100 (GE Healthcare). HBS-EP+ (GE Healthcare) was used as the running buffer, and the measurement temperature was set to 25° C. Chips produced by immobilizing the antigen peptide by the amine coupling method to a Series S Sencor Chip CM5 (GE Healthcare), or alternatively, chips produced by allowing preliminarily biotinylated antigen peptides to interact with and immobilize onto a Series S Sensor Chip SA (certified) (GE Healthcare) were used. Antibodies of interest were captured onto an antigen peptide-immobilized chip, and allowed to interact to each FcγR diluted with running buffer. To regenerate and repeatedly use the chip, the antibodies captured on the chip were washed off by reacting 10 mM glycine-HCl, pH 1.5.
For B1, the Ho/Con_2b was 47.8 % of HoCon Ab GpH7-B3/GpL16-k0. To B2 belongs 168 % of HoCon Ab GpH7-B3/GpL16-k0. On to B3, for which the Ho/Con_2b was 68.5 % of HoCon Ab GpH7-B3/GpL16-k0. To B4 belongs 90.1 % of HoCon Ab GpH7-B3/GpL16-k0; to B5, 54.9 % of HoCon Ab GpH7-B3/GpL16-k0.

On to B6, for which the Ho/Con_2b is 49.4 % of HoCon Ab GpH7-B3/GpL16-k0. Under B7 stands 140 % of HoCon Ab GpH7-B3/GpL16-k0; under B8, 92.9 % of HoCon Ab GpH7-B3/GpL16-k0; under B9, 104 % of HoCon Ab GpH7-B3/GpL16-k0. With B10, the Ho/Con_2b was 80.6 % of HoCon Ab GpH7-B3/GpL16-k0.

Regarding B11, the Ho/Con_2b was 63.9 % of HoCon Ab GpH7-B3/GpL16-k0. Consider B12, for which the Ho/Con_2b was 109 % of HoCon Ab GpH7-B3/GpL16-k0. For the molecule B13, the Ho/Con_2b is 106 % of HoCon Ab GpH7-B3/GpL16-k0.

On to B14, for which the Ho/Con_2b is 5.3 % of HoCon Ab GpH7-B3/GpL16-k0. Under B15 stands 17.8 % of HoCon Ab GpH7-B3/GpL16-k0; under B16, 170 % of HoCon Ab GpH7-B3/GpL16-k0. As to B17, the Ho/Con_2b was 81.8 % of HoCon Ab GpH7-B3/GpL16-k0.

Regarding B18, the Ho/Con_2b was 102 % of HoCon Ab GpH7-B3/GpL16-k0. To B19 belongs 37.6 % of HoCon Ab GpH7-B3/GpL16-k0. For the molecule B20, the Ho/Con_2b is 109 % of HoCon Ab GpH7-B3/GpL16-k0. To B21 belongs 103 % of HoCon Ab GpH7-B3/GpL16-k0.

Regarding B22, the Ho/Con_2b is 101 % of HoCon Ab GpH7-B3/GpL16-k0. Under B23 stands 25.7 % of HoCon Ab GpH7-B3/GpL16-k0; under B24, 35.3 % of HoCon Ab GpH7-B3/GpL16-k0. To B25 belongs 166 % of HoCon Ab GpH7-B3/GpL16-k0.
